According to the supplement of paper PMC10567573:

B1: MATN2 (parent)
chain: FSLKTFKRKSEVERAVKRMRHLST

Variants of: B1
Assay: protein stability index of a GFP-peptide fusion (GPS, HEK-293T) (PSI 1-6); higher = more stable
Settings: c terminus: a fixed tail appended
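Further: lentivirally expressed fusions sorted by FACS into six bins by GFP to DsRed ratio, PSI derived from sequencing read proportions per bin multiplied by bin number.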

| Variant | protein stability index |
| --- | --- |
| FSLKTFKRKSEVEEAVKRMRHLST [R14E] | 2.49 |
| FSLKTFKRKSEVEWAVKRMRHLST [R14W] | 2.25 |
| FSLKTFKRKSEVEFAVKRMRHLST [R14F] | 2.65 |
| FSLKTFKRKSEVELAVKRMRHLST [R14L] | 1.96 |
| FSLKTFKRKSEVEKAVKRMRHLST [R14K] | 3.11 |
| FSLKTFKRKSEVEHAVKRMRHLST [R14H] | 2.28 |
| FSLKTFKRKSEVESAVKRMRHLST [R14S] | 2.49 |
| FSLKTFKRKSEVECAVKRMRHLST [R14C] | 1.83 |
| FSLKTFKRKSEVETAVKRMRHLST [R14T] | 2.87 |
| FSLKTFKRKSEVEPAVKRMRHLST [R14P] | 2.49 |
| FSLKTFKRKSEVENAVKRMRHLST [R14N] | 2.46 |
| FSLKTFKRKSEVEGAVKRMRHLST [R14G] | 2.15 |
| FSLKTFKRKSEVEMAVKRMRHLST [R14M] | 3.08 |
| FSLKTFKRKSEVEVAVKRMRHLST [R14V] | 2.75 |
| FSLKTFKRKSEVEDAVKRMRHLST [R14D] | 2.73 |
| FSLKTFKRKSECERAVKRMRHLST [V12C] | 2.25 |
| FSLKTFKRKSELERAVKRMRHLST [V12L] | 2.56 |
| FSLKTFKRKSEAERAVKRMRHLST [V12A] | 2.36 |
| FSLKTFKRKSEFERAVKRMRHLST [V12F] | 1.4 |
| FSLKTFKRKSESERAVKRMRHLST [V12S] | 2.98 |
| FSLKTFKRKSEYERAVKRMRHLST [V12Y] | 2.12 |
| FSLKTFKRKSENERAVKRMRHLST [V12N] | 1.87 |
| FSLKTFKRKSEWERAVKRMRHLST [V12W] | 1.24 |
| FSLKTFKRKSEEERAVKRMRHLST [V12E] | 2.34 |

| Variant | protein stability index |
| --- | --- |
| FSLKTFKRKSEGERAVKRMRHLST [V12G] | 2.91 |
| FSLKTFKRKSEMERAVKRMRHLST [V12M] | 2.11 |
| FSLKTFKRKSERERAVKRMRHLST [V12R] | 3.19 |
| FSLKTFKRKSEHERAVKRMRHLST [V12H] | 2.54 |
| FSLKTFKRKSETERAVKRMRHLST [V12T] | 2.38 |
| FSLKTFKRKSEKERAVKRMRHLST [V12K] | 3.17 |
| FSLKTFKRKSEPERAVKRMRHLST [V12P] | 2.5 |
| FSLKTFKRKSEQERAVKRMRHLST [V12Q] | 3.15 |
| FSLKTFKRKSEVERAVKRMRLLST [H21L] | 1.46 |
| FSLKTFKRKSEVERAVKRMRYLST [H21Y] | 2.84 |
| FSLKTFKRKSEVERAVKRMRSLST [H21S] | 1.68 |
| FSLKTFKRKSEVERAVKRMRDLST [H21D] | 2.76 |
| FSLKTFKRKSEVERAVKRMRNLST [H21N] | 2.4 |
| FSLKTFKRKSEVERAVKRMRTLST [H21T] | 2.72 |
| FSLKTFKRKSEVERAVKRMRCLST [H21C] | 2.28 |
| FSLKTFKRKSEVERAVKRMRPLST [H21P] | 2.58 |
| FSLKTFKRKSEVERAVKRMRILST [H21I] | 1.76 |
| FSLKTFKRKSEVERAVKRMRKLST [H21K] | 3.76 |
| FSLKTFKRKSEVERAVKRMRQLST [H21Q] | 1.87 |
| FSLKTFKRKSEVERAVKRMRELST [H21E] | 2.28 |
| FSLKTFKRKSEVERAVKRMRRLST [H21R] | 2.41 |
| FSLKTFKRKSEVERAVKRMRALST [H21A] | 2.77 |
| FSLKTFKRKSEVERAVKRMRVLST [H21V] | 1.3 |
| FSLKTFKRKSEVERAVKRMRGLST [H21G] | 1.75 |

| Variant | protein stability index |
| --- | --- |
| FSLKTFKRKSEVERAVKRMRFLST [H21F] | 1.99 |
| FSLKTFKRKSEVERAVKRMRHKST [L22K] | 3.09 |
| FSLKTFKRKSEVERAVKRMRHGST [L22G] | 2.79 |
| FSLKTFKRKSEVERAVKRMRHFST [L22F] | 2.1 |
| FSLKTFKRKSEVERAVKRMRHDST [L22D] | 2.96 |
| FSLKTFKRKSEVERAVKRMRHHST [L22H] | 2.59 |
| FSLKTFKRKSEVERAVKRMRHCST [L22C] | 2.79 |
| FSLKTFKRKSEVERAVKRMRHAST [L22A] | 2.81 |
| FSLKTFKRKSEVERAVKRMRHEST [L22E] | 3.18 |
| FSLKTFKRKSEVERAVKRMRHIST [L22I] | 2.36 |
| FSLKTFKRKSEVERAVKRMEHLST [R20E] | 2.54 |
| FSLKTFKRKSEVERAVKRMAHLST [R20A] | 2.14 |
| FSLKTFKRKSEVERAVKRMSHLST [R20S] | 2.42 |
| FSLKTFKRKSEVERAVKRMYHLST [R20Y] | 2.32 |
| FSLKTFKRKSEVERAVKRMNHLST [R20N] | 2.54 |
| FSLKTFKRKSEVERAVKRMHHLST [R20H] | 2 |
| FSLKTFKRKSEVERAVKRMWHLST [R20W] | 1.24 |
| FSLKTFKRKSEVERAVKRMLHLST [R20L] | 2.81 |
| FSLKTFKRKSEVERAVKRMKHLST [R20K] | 2.59 |
| FSLKTFKRKSEVERAVKRMVHLST [R20V] | 1.6 |
| FSLKTFKRKSEVERAVKRMQHLST [R20Q] | 2.22 |
| FSLKTFKRKSEVERAVKRMCHLST [R20C] | 2.4 |
| FSLKTFKRKSEVERAVKRMPHLST [R20P] | 3.21 |
| FSLKTFKRKSEVERAVKRMTHLST [R20T] | 2.57 |

| Variant | protein stability index |
| --- | --- |
| FSLKTFKRKSEVERAVKRMIHLST [R20I] | 2.82 |
| FSLKTFKRKSEVERAVKRMMHLST [R20M] | 2.08 |
| FSLKTFKRKSEVERAVKRMGHLST [R20G] | 2.38 |
| FSLKTFKRKSEVERAVKRMDHLST [R20D] | 2.54 |
| FSLKTFKRKSEVERAVKRMFHLST [R20F] | 1.9 |
| FSLKTFKRKSEVWRAVKRMRHLST [E13W] | 1.4 |
| FSLKTFKRKSEVARAVKRMRHLST [E13A] | 2 |
| FSLKTFKRKSEVIRAVKRMRHLST [E13I] | 2.29 |
| FSLKTFKRKSEVRRAVKRMRHLST [E13R] | 2.22 |
| FSLKTFKRKSEVKRAVKRMRHLST [E13K] | 2.69 |
| FSLKTFKRKSEVMRAVKRMRHLST [E13M] | 2.25 |
| FSLKTFKRKSEVDRAVKRMRHLST [E13D] | 2.52 |
| FSLKTFKRKSEVYRAVKRMRHLST [E13Y] | 2.94 |
| FSLKTFKRKSEVSRAVKRMRHLST [E13S] | 2.34 |
| FSLKTFKRKSEVHRAVKRMRHLST [E13H] | 2.37 |
| FSLKTFKRKSEVCRAVKRMRHLST [E13C] | 1.83 |
| FSLKTFKRKSEVPRAVKRMRHLST [E13P] | 3.15 |
| FSLKTFKRKSEVGRAVKRMRHLST [E13G] | 1.83 |
| FSLKTFKRKSEVTRAVKRMRHLST [E13T] | 2.41 |
| FSLKTFKRKSEVLRAVKRMRHLST [E13L] | 2.28 |
| FSLKTFKRKSEVQRAVKRMRHLST [E13Q] | 2.9 |
| FSLKTFKRKSEVVRAVKRMRHLST [E13V] | 2.11 |
